# Experimental data from US20220381793A1, “COMPOSITIONS AND METHODS FOR IDENTIFYING MHC-II BINDING PEPTIDES” (priority 2021, published 2022).
# Where two headings read alike, the source gives them in different places. No end group written: not given here. Ahx = NCCCCCC(=O)O
# Experiments:
# [1] = target: T1, “empty” DR4-LZ (DRA*01:01/DRB1*04:01 ectodomains with Jun/Fos leucine zippers, non-covalent heterodimer displayed on yeast through Aga2p); assay: flow; conditions: chains peptide; modification not given
# [2] = target: T1, “empty” DR4-LZ (DRA*01:01/DRB1*04:01 …); assay: competition; conditions: chains peptide; modification not given
# [3] = target: T2, “empty” DQ6-LZ (DQA1*01:02/DQB1*06:02 ectodomains with Fos/Jun leucine zippers, non-covalent heterodimer displayed on yeast through Aga2p); assay: flow; conditions: chains peptide; modification not given
# [4] = target: T2, “empty” DQ6-LZ (DQA1*01:02/DQB1*06:02 …); assay: competition; conditions: chains peptide; modification not given
# [5] = target: T3, “empty” DR4-LZ (DRA*01:01/DRB1*04:01 ectodomains with Jun/Fos leucine zippers, non-covalent heterodimer displayed on yeast through Aga2p) (human)
# [6] = target: T3, “empty” DR4-LZ (DRA*01:01/DRB1*04:01 …); remark: listed apart in the source
binder,measurement,setting,value
PKYVKQNTLKLAT [Bio-HA306-318 (biotin-Ahx-…)],Kd,[1],33.2 µM
PKYVKQNTLKLAT [non-biotinylated HA306-318],IC50,[2],66.8 µM
MNLPSTKVSWAAVK-{Ahx-biotin} [HCRT1-13-Bio (…-Ahx-biotin)],Kd,[3],12.5 µM
"QASGNHAAGILTMGR [HCRT85-99, O43612 85-99]",IC50,[4],25.2 µM
"NRALTGIAVEQDKNTQE (modifications not checked) [S764-780, P0DTC2 764-780]",% competition,[5],< 50%
"HGVVFLHVTYVPAQEKN (modifications not checked) [S1058-1074, P0DTC2 1058-1074]",% competition,[6],75%
